This is an account of results in patent US20220298231A1.

The Kd is the concentration at which binding is half-saturated. Read a high Kd as lower affinity. In general, koff refers to the first-order rate constant of dissociation. Lower therefore signals slow dissociation. A word on the kon: it is the second-order rate constant of association. A higher kon goes with fast association.

Bounds are passed on as bounds.

Settings in all cases: remark: other sources report otherwise
The target in assay [1] is human full-length alpha-synuclein (human), P37840. The assay is described as follows: SPR, 100 nM monomer, relative to chimeric. Background: In SPR one partner is held on a chip, and binding of the other changes the refractive index at the surface.
The target is the same in assay [2]. Kind of assay: SPR, mAb captured, steady-state fit.
The target of assay [3] is alpha-synuclein fibrils (Homo sapiens (Human)), P37840. Kind of assay: SPR, 450 nM aggregates, relative to chimeric.
The target of assay [4] is human full-length alpha-synuclein (human), P37840. Kind of assay: SPR, mAb captured; alpha-synuclein monomers.
For assay [5], the target named is alpha-synuclein fibrils (Homo sapiens (Human)), P37840. Kind of assay: SPR, mAb captured; alpha-synuclein fibrils.

B1: cACI-7067-1101C8-Ab2 (antibody, V domains shown)
VH: EVQLVESGGGLVQPKGSLKLSCAASGFSFNIYAMNWVRQAPGKGLEWVARIRSKSNNYATYYADSVKDRFTISRADSESMLYLQMNNLKTEDTAMYYCVRVGLRFYAMDYWGQGTSVTVSS
VL: DVLMTQTPLSLPVSLGDQASISCRSSQSIVHSNGNTYLEWYLQKPGQSPKLLIYKVSNRFSGVPDRFSGSGSGTDFTLKISRVEAEDLGVYYCFQGSQGPLTFGAGTKLELK
As for B1, the Relative koff in assay [1] and in assay [3] was 1 each time. The molecule also had a Kd in assay [2] of 54.5 nM.

B2: ACI-7067-1113D10-Ab1 (antibody, V domains shown)
VH: EVQLVESGGGLVQPKGSLKLSCAASGFTFNTYALHWVRQAPGKGLEWVARIRSKSSNYATYYADSVKDRFTISRDDSQSMLYLQMNNLKTEDTGMYYCVRGGVSPFDYWGQGTTLTVSS
VL: QIVLTQSPAIMSASPGEKVTMTCSASSSVSYMHWYQQKSGTSPKRWIYDTSKLASGVPARFSGSGSGTSYSLTISSMEAEDSATYYCQQWSNNPPTFGGGTKLEIK
With B2, the koff in assay [4] was 0.0226 s⁻¹.

B3: ACI-7079-2503C6-Ab1 (antibody, V domains shown)
VH: DVQLQESGPGLVKPSQSLSLTCSVTGYSITSGYYWNWIRLFPGNKLEWLGYINYDGSNNFNPSLKNRISITRDTSKNQFFLKLNSVTSEDTATYFCLRGDWDWGQGTLVTVSA
VL: not shown
For B3, in assay [5], the koff was less than 1e-05 s⁻¹ and the kon worked out at 9450 M⁻¹ s⁻¹.
